Our source for the Kd values is the Immune Epitope Database (IEDB).

The target in one assay is HLA-B*15:02. Nature of the assay: IEDB peptide-MHC binding, purified MHC/direct/fluorescence; filed as Kd, often an IC50 or EC50 that approximates it; ≥ and ≤ were set here for values at or beyond the usual limits of such assays. As to conditions: source organism: Dengue virus.
The next assay deals with HLA-B*46:01. The description is as above.
In a further assay the target is HLA-A*30:02. Nature of the assay: IEDB peptide-MHC binding, purified MHC/competitive/radioactivity; filed as Kd, often an IC50 or EC50 that approximates it; ≥ and ≤ were set here for values at or beyond the usual limits of such assays. As to conditions: source organism: Dengue virus 2 Jamaica/1409/1983.
A further assay addresses HLA-A*26:02. Description: IEDB peptide-MHC binding, purified MHC/direct/fluorescence; filed as Kd, often an IC50 or EC50 that approximates it; ≥ and ≤ were set here for values at or beyond the usual limits of such assays. As to conditions: source organism: Escherichia coli O157:H7 str. EC869.
The target in the next assay is HLA-B*08:01. Described as above.
A further assay has as its target HLA-A*26:03. The assay is described as above.
Another assay addresses HLA-B*57:01. Described as above.
The target of a further assay is HLA-A*29:02. The description is as above.
Another assay concerns the target HLA-B*07:02. Described as above.
A further assay deals with HLA-A*24:03. Described as above.
For a further assay, the target named is HLA-A*02:12. Described as above.
A further assay deals with HLA-B*18:01. The assay is described as above. As to conditions: source organism: Escherichia coli O157:H7 str. EC869.
The next assay concerns the target HLA-B*58:01. Described as above.
For a further assay, the target named is HLA-A*02:50. The description is as above.
Another assay concerns the target HLA-A*26:01. The assay is described as above.
For a further assay, the target named is HLA-B*38:01. The assay is described as above. The settings on record: source organism: Escherichia coli O157:H7 str. EC869.
A further assay has as its target HLA-A*23:01. The description is as above.
In another assay the target is HLA-A*11:01. The assay is described as above.
A further assay has as its target HLA-B*48:01. The description is as above.
The next assay addresses HLA-A*02:19. The description is as above.
The target of assay [1] is HLA-A*31:01. Described as above. As to conditions: source organism: Escherichia coli O157:H7.
For the next assay, the target named is HLA-B*15:01. The description is as above.
For another assay, the target named is HLA-B*51:01. The assay is described as above.
A further assay concerns the target HLA-A*01:01. The assay is described as above.
For a further assay, the target named is HLA-A*03:01. The description is as above.
The target in another assay is HLA-B*40:01. The description is as above.
In the next assay the target is HLA-B*27:05. Described as above.
Another assay deals with HLA-B*44:02. Described as above.
In the next assay the target is HLA-A*02:01. The assay is described as above.
Another assay concerns the target HLA-A*69:01. Nature of the assay: IEDB peptide-MHC binding, purified MHC/competitive/fluorescence; filed as Kd, often an IC50 or EC50 that approximates it; ≥ and ≤ were set here for values at or beyond the usual limits of such assays.
The target in the next assay is HLA-A*02:11. Nature of the assay: IEDB peptide-MHC binding, purified MHC/direct/fluorescence; filed as Kd, often an IC50 or EC50 that approximates it; ≥ and ≤ were set here for values at or beyond the usual limits of such assays. The settings on record: source organism: Vibrio parahaemolyticus RIMD 2210633.
Another assay has as its target HLA-A*30:01. Described as above. As to conditions: source organism: Vibrio parahaemolyticus RIMD 2210633.
The target in a further assay is HLA-B*39:01. Described as above. As to conditions: source organism: Vibrio parahaemolyticus RIMD 2210633.
For assay [2], the target named is HLA-A*31:01. Nature of the assay: IEDB peptide-MHC binding, purified MHC/competitive/fluorescence; filed as Kd, often an IC50 or EC50 that approximates it; ≥ and ≤ were set here for values at or beyond the usual limits of such assays. As to conditions: source organism: Vibrio parahaemolyticus AN-5034.
The target in a further assay is HLA-B*15:17. The assay is described as above. As to conditions: source organism: Vibrio parahaemolyticus AN-5034.
Where [3] appears, read: source organism: Escherichia coli O157:H7 str. EC869.
The mark [4] stands for this setting: source organism: Escherichia coli O157:H7.
Where [5] appears, read: source organism: Vibrio parahaemolyticus RIMD 2210633.
The mark [6] stands for this setting: source organism: Vibrio parahaemolyticus.

For orientation: pKd means the Kd on a negative log10 scale, so that one unit is a factor of ten.

pKd: −log10 of the molar value.

Turning to SQHNYRPGY, the negative-log Kd (pKd) with HLA-B*15:02 is 6.55; with HLA-B*46:01 (source organism: Dengue virus), at most 4.70; with HLA-A*30:02, 6.11.

Turning to ETIGLVRAL, the pKd with HLA-A*26:02 is at least 9.00; with HLA-B*08:01 (setting [3]), at most 4.70; in the assay with HLA-A*26:03 (setting [3]), at least 9.00; with HLA-B*57:01 (setting [3]), at most 4.70; with HLA-A*29:02 (setting [3]), at most 4.70; with HLA-B*07:02 (setting [4]) it was at most 5.30. Moreover, the pKd with HLA-A*24:03 (setting [3]) was at most 4.70; with HLA-A*02:12 (setting [3]) it was at most 4.70; in the assay with HLA-B*18:01, at most 4.70; with HLA-B*58:01 (setting [4]), at most 4.70; with HLA-A*02:50 (setting [3]), at most 4.70; in the assay with HLA-A*26:01 (setting [3]) it was 8.40. The pKd in the assay with HLA-B*38:01, in the assay with HLA-A*23:01 (setting [3]), in the assay with HLA-A*11:01 (setting [4]), in the assay with HLA-B*48:01 (setting [4]), with HLA-A*02:19 (setting [3]) and with HLA-A*31:01 [1] was at most 4.70 each time. Besides, the pKd is 6.00 with HLA-B*15:01 (setting [4]); at most 4.70 in the assay with HLA-B*51:01 (setting [3]); at most 4.70 in the assay with HLA-A*01:01 (setting [4]); at most 4.70 with HLA-A*03:01 (setting [4]); at most 4.70 with HLA-B*40:01 (setting [4]); at most 4.70 with HLA-B*46:01 (setting [4]). For the same sequence, the pKd was at most 4.70 in the assay with HLA-B*27:05 (setting [4]), at most 4.70 in the assay with HLA-B*44:02 (setting [3]), at most 4.70 with HLA-A*02:01 (setting [4]) and 9.22 in the assay with HLA-A*69:01 (source organism: Escherichia coli B171).

As to DTWHGFKNM, the pKd with HLA-B*08:01 (setting [5]) was at most 4.70; with HLA-A*26:03 (setting [5]), 7.96; with HLA-B*57:01 (setting [6]) it was at most 4.70; with HLA-A*29:02 (setting [5]), at most 4.70; with HLA-B*07:02 (setting [6]), at most 4.70; in the assay with HLA-A*24:03 (setting [5]), at most 4.70. The pKd with HLA-A*02:12 (setting [5]) was at most 4.70; in the assay with HLA-B*58:01 (setting [6]), at most 4.70; with HLA-A*02:50 (setting [5]), at most 4.70; with HLA-A*26:01 (setting [5]), 6.77; in the assay with HLA-A*23:01 (setting [5]), at most 4.70; in the assay with HLA-A*11:01 (setting [6]), at most 4.70. For the same sequence, the pKd in the assay with HLA-B*48:01 (setting [6]), in the assay with HLA-A*02:19 (setting [5]), in the assay with HLA-B*15:01 (setting [6]), in the assay with HLA-A*02:11, with HLA-B*51:01 (setting [5]) and with HLA-A*01:01 (setting [6]) was at most 4.70 in each case. Moreover, the pKd with HLA-A*03:01 (setting [6]), with HLA-B*40:01 (setting [6]), with HLA-B*46:01 (setting [6]), with HLA-B*27:05 (setting [6]), with HLA-B*44:02 (setting [5]) and in the assay with HLA-A*30:01 was at most 4.70 throughout. The negative logarithm of the Kd (pKd) is at most 4.70 with HLA-A*02:01 (setting [6]); at most 4.70 in the assay with HLA-B*39:01; 7.65 in the assay with HLA-A*69:01 (source organism: Vibrio parahaemolyticus AN-5034); at most 4.70 in the assay with HLA-A*31:01 [2]; at most 4.70 in the assay with HLA-B*15:17.
